This series has as its system PTB1 (polypyrimidine-tract-binding protein isoform 1). Put plainly: filter binding.

pKd: −log10 of the molar value.

As to EMCV 5'UTR RNA, the pKd is 6.90.
As for HCV 5'UTR RNA, the figure is 6.62.

For the origin of these results see publication PMC9864772.
